Test results taken from article PMC7615117, “DNSN-1 recruits GINS for CMG helicase assembly during DNA replication initiation in C. elegans” (Science (New York, N.Y.), 2023).

T1: MCM-3 (C. elegans, UniProt Q9XVR7 1-812)
T1 construct: MCM-3, C. elegans; Subunit of m11, written alone for its contacts in the structure; also called MCM-3 subunit of MCM-2-7; source: S. cerevisiae, purified as part of recombinant CMG
T1 sequence: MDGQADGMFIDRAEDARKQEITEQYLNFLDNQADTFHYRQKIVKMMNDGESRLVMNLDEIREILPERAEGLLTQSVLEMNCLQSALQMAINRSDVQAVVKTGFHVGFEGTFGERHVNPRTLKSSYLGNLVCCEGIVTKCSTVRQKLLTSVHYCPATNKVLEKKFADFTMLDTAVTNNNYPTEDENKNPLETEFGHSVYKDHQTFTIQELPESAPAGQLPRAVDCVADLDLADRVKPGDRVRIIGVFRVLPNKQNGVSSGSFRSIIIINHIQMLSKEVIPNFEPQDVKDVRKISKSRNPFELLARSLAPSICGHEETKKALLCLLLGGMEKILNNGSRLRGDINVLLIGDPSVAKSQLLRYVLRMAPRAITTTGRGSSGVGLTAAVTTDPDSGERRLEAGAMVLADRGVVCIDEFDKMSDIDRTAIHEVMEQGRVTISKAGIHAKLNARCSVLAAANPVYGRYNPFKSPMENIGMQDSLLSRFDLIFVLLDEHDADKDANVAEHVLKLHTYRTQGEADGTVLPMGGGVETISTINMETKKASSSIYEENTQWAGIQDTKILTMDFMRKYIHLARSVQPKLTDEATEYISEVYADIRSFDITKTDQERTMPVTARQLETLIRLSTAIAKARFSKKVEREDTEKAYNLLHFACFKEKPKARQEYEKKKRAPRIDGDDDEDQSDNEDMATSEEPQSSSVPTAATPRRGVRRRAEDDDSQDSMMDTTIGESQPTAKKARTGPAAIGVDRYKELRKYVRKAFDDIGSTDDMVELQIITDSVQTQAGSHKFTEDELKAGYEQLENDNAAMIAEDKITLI

T2: MCM-4 (C. elegans, UniProt Q95XQ8 1-823)
T2 construct: MCM-4, C. elegans; Subunit of m11, written alone for its interfaces in the structure; source: S. cerevisiae, purified as part of recombinant CMG
T2 sequence: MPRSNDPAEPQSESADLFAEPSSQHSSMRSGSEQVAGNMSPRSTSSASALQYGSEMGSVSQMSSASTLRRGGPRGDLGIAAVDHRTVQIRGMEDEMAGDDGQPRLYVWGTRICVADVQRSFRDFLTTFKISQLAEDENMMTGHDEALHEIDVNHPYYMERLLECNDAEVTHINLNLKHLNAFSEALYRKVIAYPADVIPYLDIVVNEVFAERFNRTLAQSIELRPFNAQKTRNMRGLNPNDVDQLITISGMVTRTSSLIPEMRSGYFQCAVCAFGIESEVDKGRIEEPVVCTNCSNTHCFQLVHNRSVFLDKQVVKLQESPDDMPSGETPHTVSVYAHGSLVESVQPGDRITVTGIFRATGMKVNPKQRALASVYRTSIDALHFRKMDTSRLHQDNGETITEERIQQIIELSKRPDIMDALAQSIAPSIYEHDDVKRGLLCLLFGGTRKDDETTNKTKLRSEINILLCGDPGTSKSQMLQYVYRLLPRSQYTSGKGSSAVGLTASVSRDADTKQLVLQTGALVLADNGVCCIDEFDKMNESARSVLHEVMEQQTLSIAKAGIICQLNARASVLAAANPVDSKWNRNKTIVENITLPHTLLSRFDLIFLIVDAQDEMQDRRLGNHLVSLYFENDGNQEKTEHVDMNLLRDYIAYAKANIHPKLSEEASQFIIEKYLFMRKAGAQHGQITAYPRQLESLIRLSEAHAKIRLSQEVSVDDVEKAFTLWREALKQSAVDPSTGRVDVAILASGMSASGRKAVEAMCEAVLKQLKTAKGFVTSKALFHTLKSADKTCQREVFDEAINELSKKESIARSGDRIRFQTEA


Key:
Experiment in all cases: cryo-EM structure; CMG (125 nM) with fork DNA, AMP-PNP, TIM-1/TIPN-1 and DNSN-1 isoform c (each 1.3-fold molar excess), GraFix gradient with glutaraldehyde and BS3
[1] = biological target: recombinant C. elegans DNSN-1 (C. elegans)
[2] = biological target: T1, MCM-3; details: both partners purified
[3] = biological target: T2, MCM-4; details: both partners purified

Row | stoichiometry N [1] | binding result [2] | binding result [3] | Molecule
1 | 2 | – | – | recombinant C. elegans DNSN-1 (natural protein)
2 | – | binds | binds | MCM-7 (natural protein, C. elegans, MCM-7, C. elegans; Subunit of m11, written alone for its interfaces in the structure; source: S. cerevisiae, purified as part of recombinant CMG) MKTTTYNTDWAAEKTKIRSFFDEYYVDNEDGSGKAFPYRDQVFEIARRDKQAIVVNVDHIKESDIPDALELSEAITSNTKRYEVLFKDTISDMIQDYLGDKQAPVIDALDAYMFQRLHMDRNEGAANEEVSLQDKRKKYPPQLLQRFEVYFTTDDAAHETCVRNIKATEIGHLVSMKGVVIRATEVKPCVEVMTYTCDTCAAEVYQPVKGMQFTPPVNCPNKECVEAKANGRLHMQLRGSKFVKFQELKIQELSEQVPVGSIPRTMTVHVYGEMTRKCNTGNVVHVSGVFLPIMQSGFRPTGGLVADTYLEAHYINNLDDNPTFNGVQSAELEVLRRKGDNYETLAASIAPEIFGHVDVKKCLLMALVGGNDNSSNGMKIRGCINVLMMGDPGVAKSQLLGYVNRLAPRSQYTTGRGSSGVGLTAAVMKDPVTGEMSLEGGALVLADGGICCIDEFDKMMDHDRTAIHEVMEQQTISIAKAGIMTTLNARTAIIAAANPAYGRYNPNRSIEQNVDLPAALLSRFDLILLMQDKADRENDKILAEHITYVHQHGCHPNREKKDLISLETLREYISLCKTYTPTVDPALRERIVEAYVEMRRDARYSSDPTFVSPRMILGIVRMATARAKLRLSTIVDESDVEEALRLMQFAKDSLRPEQNKIEKRMAPVDAAFAVLRELYHADNAPIAISNAIQRCARKGISEVALKKCLDQYTANGLLVMDRQNIVFAMN
